From US20180298070A1, “PEPTIDE COMPOUND” (Takeda Pharmaceutical Company Limited, published 2018)
Starred links: 1 amine or outer side, 2 acyl side, 3 side chain; linkers in the order of their positions; H or OH if unused. Non-standard residues stand in square brackets, D forms with d. Groups on a side chain read outwards from the residue. Primed or numbered codes have the meaning given here. No end group written: not given here. *: point of attachment. C20 diacid = O=C(O)CCCCCCCCCCCCCCCCCCC(=O)*; γGlu = O=C(O)[C@H](CCC(=O)[*:2])N[*:1]; NMeY = CN[C@@H](Cc1ccc(O)cc1)C(=O)O; Stearoyl = CCCCCCCCCCCCCCCCCC(=O)*; Tridecanoyl = CCCCCCCCCCCCC(=O)*; αMeF = C[C@](N)(Cc1ccccc1)C(=O)O; Lauroyl = CCCCCCCCCCCC(=O)*; dIva = CC[C@@](C)(N)C(=O)O; Iva = CC[C@](C)(N)C(=O)O; PEG2′ = not defined here; PEG3′ = not defined here; Hexanoyl = CCCCCC(=O)*; Aib = CC(C)(N)C(=O)O

T1: human GIPR (human), P48546
T1 chain: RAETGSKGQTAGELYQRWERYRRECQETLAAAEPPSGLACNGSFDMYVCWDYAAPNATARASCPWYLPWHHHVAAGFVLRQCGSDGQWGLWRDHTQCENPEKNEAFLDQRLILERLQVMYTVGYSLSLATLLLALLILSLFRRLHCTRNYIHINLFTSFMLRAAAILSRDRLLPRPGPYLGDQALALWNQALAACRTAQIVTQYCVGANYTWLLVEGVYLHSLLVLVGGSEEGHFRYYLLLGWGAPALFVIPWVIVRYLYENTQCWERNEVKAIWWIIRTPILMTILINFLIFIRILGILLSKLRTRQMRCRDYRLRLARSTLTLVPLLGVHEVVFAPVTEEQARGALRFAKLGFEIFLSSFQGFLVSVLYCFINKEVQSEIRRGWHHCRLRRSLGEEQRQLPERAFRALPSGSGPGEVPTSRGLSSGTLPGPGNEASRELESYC

T2: human GLP-1R (human), P43220
T2 chain: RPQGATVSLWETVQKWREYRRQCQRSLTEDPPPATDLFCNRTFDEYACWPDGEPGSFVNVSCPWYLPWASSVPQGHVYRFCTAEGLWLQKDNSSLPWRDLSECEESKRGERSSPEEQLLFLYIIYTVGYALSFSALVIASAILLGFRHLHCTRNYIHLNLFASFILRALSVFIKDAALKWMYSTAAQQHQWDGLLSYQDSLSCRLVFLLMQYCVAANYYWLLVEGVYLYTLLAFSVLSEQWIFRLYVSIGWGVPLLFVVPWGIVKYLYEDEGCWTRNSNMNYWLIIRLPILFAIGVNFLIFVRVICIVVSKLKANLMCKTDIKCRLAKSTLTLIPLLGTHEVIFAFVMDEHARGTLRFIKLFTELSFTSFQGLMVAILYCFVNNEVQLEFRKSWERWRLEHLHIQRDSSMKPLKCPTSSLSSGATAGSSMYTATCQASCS


What was measured:
[1] = molecular target: T1, human GIPR (human), P48546
[2] = molecular target: T2, human GLP-1R (human), P43220
[3] = molecular target: T1, human GIPR (human), P48546; experiment: [125I]GIP displacement, hGIPR VLP

| Binder | Agonist activity (EC50, M) [1] [M] | Agonist activity (EC50, M) [2] [M] | IC50 [3] [nM] |
| --- | --- | --- | --- |
| Y[Aib]EGTFISDYSK([PEG3′-PEG3′-γGlu-C20 diacid])ALDR[Aib]HQ[Aib]NFVNW[Iva]LAQRPSSGAPPPS (not fully specified (C-terminus); ends and bridges not checked) [Compound 242] | 6.7e-11 | > 1e-06 | – |
| Y[Aib]EGTVVSLYSK([PEG(2)-Pal])[Aib]LDKQAQ[Aib]EFVKWLLAQK (ends and bridges not checked) [Compound 158] | 9.9e-11 | > 1e-06 | 3.4 |
| Y[Aib]EGTVVSLYSK(Pal)[Aib]LDKQAQ[Aib]EFVKWLLAQK (ends and bridges not checked) [Compound 159] | 7.8e-10 | > 1e-06 | 8.1 |
| [NMeY][Aib]EGTFISDYSIALDRIAQ[Aib]SFVNW[Iva]LAQRPSSGAPPPSR (not fully specified (N-terminus, C-terminus); ends and bridges not checked) [Compound 124] | 1.7e-12 | > 1e-06 | 1.6 |
| Y[Aib]EGTFISDYSIALDRK([PEG(2)-Pal])HQQDFVNWLLAQRPSSGAPPPS (not fully specified (C-terminus); ends and bridges not checked) [Compound 233] | 3.8e-12 | > 1e-06 | – |
| Y[Aib]EGTFISDYSK([PEG2′-Tridecanoyl])ALDRIAQQDFVNWLLAQRPSSGAPPPSR (ends and bridges not checked) [Compound 185] | 7e-12 | 2.6e-08 | 19 |
| Y[Aib]EGTFISDYSK([PEG2′-Hexanoyl])ALDRIHQQDFVNWLLAQRPSSGAPPPSR (ends and bridges not checked) [Compound 179] | 3e-12 | > 1e-06 | 2.1 |
| Me-Y[Aib]EGTFISDYSIALDRIAQ[Aib]SFVNWLLAQRPSSGAPPPSR (not fully specified (residue 1, C-terminus); ends and bridges not checked) [Compound 136] | 2.2e-12 | 2.1e-07 | 2.1 |
| Me-Y[Aib]EGTFISDYSIALDRIAQQN[αMeF]VNWLLAQRPSSGAPPPSR (not fully specified (residue 1, C-terminus); ends and bridges not checked) [Compound 134] | 2.3e-12 | > 1e-06 | 1.2 |
| Y[Aib]EGTFISDYSK([PEG2′-Stearoyl])ALDRIHQQDFVNWLLAQRPSSGAPPPSR (ends and bridges not checked) [Compound 181] | 9.2e-12 | > 1e-06 | 2.6 |
| Y[Aib]EGTFISDYSK([PEG2′-Ac])ALDRIHQQDFVNWLLAQRPSSGAPPPSR (ends and bridges not checked) [Compound 178] | 4.2e-12 | > 1e-06 | 3 |
| Y[Aib]EGTFISDYSK([PEG(2)-Stearoyl])ALDRIHQQDFVNWLLAQRPSSGAPPPS (ends and bridges not checked) [Compound 176] | 1.9e-11 | > 1e-06 | 3.4 |
| Ac-Y[Aib]EGTFISDYSI[dIva]LDRIAQ[Aib]NFVNW[Iva]LAQRPSSGAPPPSR (ends and bridges not checked) [Compound 152] | 2.8e-12 | > 1e-06 | 2.1 |
| [NMeY][Aib]EGTFISDYSI[dIva]LDR[Aib]AQ[Aib]N[αMeF]VNWLLAQRPSSGAPPPSR (not fully specified (N-terminus, C-terminus); ends and bridges not checked) [Compound 106] | 1.7e-12 | > 1e-06 | 1.6 |
| Y[Aib]EGTVVSLYSI[Aib]LDKQAQ[Aib]EFVKWLLAQKK(Pal) (ends and bridges not checked) [Compound 161] | – | > 1e-06 | 24 |
| [NMeY][Aib]EGTFISDYSI[dIva]LDRIAQ[Aib]N[αMeF]VNWLLAQRPSSGAPPPSR (ends and bridges not checked) [Compound 99] | 2.9e-12 | > 1e-06 | 2.1 |
| Y[Aib]EGTVVSLYSK([Gly-Gly-Gly-Gly-C20 diacid])[Aib]LDRQAQ[Aib]EFVK(Ac)WLLAQR (ends and bridges not checked) [Compound 260] | 2.6e-10 | > 1e-06 | 15 |
| Y[Aib]EGTFISDYSK([PEG2′-Lauroyl])ALDRIHQQDFVNWLLAQRPSSGAPPPSR (ends and bridges not checked) [Compound 180] | 1.9e-12 | > 1e-06 | 1.2 |
| Y[Aib]EGTFISDYSK([PEG(2)-Lauroyl])ALDR[Aib]HQQSFVNW[Iva]LAQRPSSGAPPPS (not fully specified (C-terminus); ends and bridges not checked) [Compound 224] | 4.2e-12 | > 1e-06 | – |
| [NMeY][Aib]EGTFISDYSIALDR[Aib]AQ[Aib]NFVNW[Iva]LAQRPSSGAPPPSR (ends and bridges not checked) [Compound 84] | 1.2e-12 | – | 1.2 |
| Y[Aib]EGTFISDYSK([PEG(2)-Pal])ALDRIHQQDFVNWLLAQRPSSGAPPPSR (ends and bridges not checked) [Compound 177] | 7.2e-12 | > 1e-06 | 2.4 |
| Y[Aib]EGTFISDYSIALDRK([PEG(2)-dodec])HQ[Aib]NFVNW[Iva]LAQRPSSGAPPPS (not fully specified (C-terminus); ends and bridges not checked) [Compound 239] | 2.5e-12 | 5e-08 | – |
| Y[Aib]EGTVVSLYSI[Aib]LDKQAQ[Aib]EFVKWLLAQKK([PEG(2)-Pal]) (ends and bridges not checked) [Compound 160] | 9.5e-11 | > 1e-06 | 4.1 |
| Y[Aib]EGTFISDYSK([PEG(2)-Ac])ALDRIHQQDFVNWLLAQRPSSGAPPPS (ends and bridges not checked) [Compound 173] | 4.4e-12 | > 1e-06 | 7.1 |
| Me-Y[Aib]EGTFISDYSIALDR[Aib]AQQSFVNWLLAQRPSSGAPPPSR (not fully specified (residue 1, C-terminus); ends and bridges not checked) [Compound 137] | 1.7e-12 | > 1e-06 | 0.98 |
| Y[Aib]EGTVVSLYSI[Aib]LDKQAQ[Aib]EFVKWLLKGK(Pal) (ends and bridges not checked) [Compound 163] | 6.6e-09 | > 1e-06 | 50 |
